Source: patent US20240158459A1 (KYVERNA THERAPEUTICS, published 2024)
Residue numbers refer to the chain shown, from its start. Numbers in names are those of the source.

Molecular target: T1, biotinylated-MADCAM-1 antigen (human, UniProt Q13477 19-317, limits assumed, biotinylated (site not stated))
T1 construct: The BLI paragraph says only 'biotinylated-MADCAM-1 antigen'; also called mucosal addressin cell adhesion molecule 1
T1 sequence (looked up): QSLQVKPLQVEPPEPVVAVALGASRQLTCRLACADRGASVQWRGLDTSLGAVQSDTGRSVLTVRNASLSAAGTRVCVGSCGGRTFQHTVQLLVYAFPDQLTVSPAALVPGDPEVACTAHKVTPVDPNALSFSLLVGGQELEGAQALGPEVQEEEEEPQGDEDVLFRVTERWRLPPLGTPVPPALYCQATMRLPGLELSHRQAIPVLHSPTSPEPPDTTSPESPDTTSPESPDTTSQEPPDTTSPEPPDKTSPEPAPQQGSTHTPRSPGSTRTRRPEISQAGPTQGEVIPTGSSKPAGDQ
Assay: BLI, biotinylated MADCAM-1 on streptavidin biosensors, scFv titrated, global 1:1 fit
Description: Binding affinity (KD) of MADCAM-1 scFv antibodies from Table 2 was measured using biolayer interferometry (See also FIG. 6). Streptavidin biosensors were loaded for 5 seconds with 10 Tg/mL biotinylated-MADCAM-1 antigen followed by acquisition of the baseline signal in phosphate buffer saline supplemented with bovine serum albumin and sodium azide. For the association step loaded probes were incubated for 250 seconds with a titration of anti-MADCAM-1 scFv antibodies at concentrations generally between 0 nM and 2 TM. This was followed by a dissociation step in buffer lacking anti-MADCAM-1 scFv for 250 seconds. Experimental data was normalized to a reference probe and high-frequency noise was removed by Savitzky-Golay filtering. On and off-rate constants were determined using a globally fitted 1:1 binding model.

B1: MAdCAM1 scFv 32.6 (scFv)
scFv: QVQLVESGGGVVQPGRSLRLSCAASGFSFSSSYWICWVRQAPGKGLEWVACIYGGSSGATYYANWAKGRFTISRDNSTNTLFLQMNSLRAEDTAVYYCARSGSTTSGGVYRWYFNLWGQGTLVTVSSGGGGSGGGGSGGGGSDIQMTQSPSSLSASVGDRVTITCQASENIYNLLAWYQQKPGKAPKLLIYDASNLETGVPSRFSGSGSGTDFTFTISSLQPEDIATYYCQFTYYGGTYESAFGGGTKVEIK
notes: Humanized rabbit-derived scFv, VH-(G4S)3-VL
B1 gave a Kd of 6.7 nM, a koff of 0.00219 s⁻¹ and a kon of 327000 M⁻¹ s⁻¹.

B2: MAdCAM1 scFv 2.1 (scFv)
scFv: QVQLLESGGGLVKPGGSLRLSCAASGFSFSSGYYMCWIRQAPGKGLEWVSCIYADSSYTYYASWAKGRFTISRDNAKNSLYLQMNSLRAEDTAVYYCARSNGDYFYGMDLWGQGTLVTVSSGGGGSGGGGSGGGGSDIQMTQSPSSLSASVGDRVTITCQASQSINSWLSWYQQKPGKAPKLLIYRASTLASGVPSRFSGSGSGTDFTFTISSLQPEDIATYYCQSNYYSTSTAFGGGTKVEIK
notes: as for B1
Binder B2 has a Kd of 85 nM, a koff of 0.00602 s⁻¹ and a kon of 70800 M⁻¹ s⁻¹.

B3: MAdCAM1 scFv 2.2 (scFv)
scFv: B2 scFv with D137A, F209L, I219F
notes: as for B1
Work on B3 yielded a Kd of 329 nM, a koff of 0.0167 s⁻¹ and a kon of 50800 M⁻¹ s⁻¹.

B4: MAdCAM1 scFv 17.7 (scFv)
scFv: EVQLVESGGGLVKPGGSLRLSCAASGFSFSSTYYMCWVRQAPGKGLEWVSCIYTGSGNTDYASWAKGRFTISRDNAKNSLYLQMNSLRAEDTAVYYCARGGIVDSYFTYFDLWGQGTLVTVSSGGGGSGGGGSGGGGSDIQMTQSPSTLSASVGDRVTITCQASESIFSNLAWYQQKPGKAPKLLIYWASTLASGVPSRFSGSGSGTEFTLTISSLQPDDFATYYCQSYVYSSSSSNDFGGGTKVEIK
notes: as for B1
Work on B4 yielded a Kd of 1.8 nM, a koff of 0.000537 s⁻¹ and a kon of 300000 M⁻¹ s⁻¹.

B5: MAdCAM1 scFv 17.1 (scFv)
scFv: B4 scFv with K13Q, D74H, A76S, S79T
notes: as for B1
Work on B5 yielded a Kd of 2.3 nM, a koff of 0.000568 s⁻¹ and a kon of 247000 M⁻¹ s⁻¹.

B6: MAdCAM1 scFv 17.5 (scFv)
scFv: B4 scFv with E1Q, L11V, K13Q, G16R, S50A, A76S, K77T, S79T, Y81F
notes: as for B1
In the case of B6, the Kd is reported as 3.7 nM, the koff is reported as 0.000967 s⁻¹ and the kon is reported as 258000 M⁻¹ s⁻¹.

B7: MAdCAM1 scFv 17.3 (scFv)
scFv: B4 scFv with E1Q, V5L, V38I
notes: as for B1
Work on B7 yielded a Kd of 2.9 nM, a koff of 0.000868 s⁻¹ and a kon of 304000 M⁻¹ s⁻¹.

B8: MAdCAM1 scFv 10.7 (scFv)
scFv: EVQLLESGGGLVQPGGSLRLSCAASGIDFSGYHYICWVRQAPGKGLEWVSCIYTVSSGIWYATWAKGRFTISRDNSKNTLYLQMNSLRAEDTAVYYCARDDADVSGYWFDLWGQGTLVTVSSGGGGSGGGGSGGGGSDIQMTQSPSSLSASVGDRVTITCQASQSISNLLAWYQQKPGKAPKLLIYKASTLASGVPSRFSGSGSGTDFTFTISSLQPEDIATYYCQQGITNNGIDHGFGGGTKVEIK
notes: as for B1
B8 showed a Kd of 45.4 nM, a koff of 0.00108 s⁻¹ and a kon of 23800 M⁻¹ s⁻¹.

B9: MAdCAM1 scFv 10.2 (scFv)
scFv: QVQLVESGGGVVQPGRSLRLSCAASGIDFSGYHYICWVRQAPGKGLEWVACIYTVSSGIWYATWAKGRFTISRDNSTNTLFLQMNSLRAEDTAVYYCARDDADVSGYWFDLWGQGTLVTVSSGGGGSGGGGSGGGGSAIQLTQSPSSLSASVGDRVTITCQASQSISNLLAWYQQKPGKAPKLLIYKASTLASGVPSRFSGSGSGTDFTLTISSLQPEDFATYYCQQGITNNGIDHGFGGGTKVEIK
notes: as for B1
With B9 the Kd was 1260 nM, the koff was 0.00646 s⁻¹ and the kon was 5130 M⁻¹ s⁻¹.

B10: MAdCAM1 scFv 10.1 (scFv)
scFv: B9 scFv with A138D, L141M, L210F, F220I
notes: as for B1
B10 showed a Kd of 102 nM, a koff of 0.00125 s⁻¹ and a kon of 12200 M⁻¹ s⁻¹.

B11: MAdCAM1 scFv 10.3 (scFv)
scFv: B8 scFv with L5V, Q13K, S76A, T79S
notes: as for B1
Work on B11 yielded a Kd of 98.3 nM, a koff of 0.00114 s⁻¹ and a kon of 11600 M⁻¹ s⁻¹.

B12: MAdCAM1 scFv 10.8 (scFv)
scFv: B8 scFv with D138A, M141L, F210L, I220F
notes: as for B1
Work on B12 yielded a Kd of 928 nM, a koff of 0.00259 s⁻¹ and a kon of 2790 M⁻¹ s⁻¹.

B13: MAdCAM1 scFv 32.3 (scFv)
scFv: EVQLLESGGGLVQPGGSLRLSCAASGFSFSSSYWICWVRQAPGKGLEWVSCIYGGSSGATYYANWAKGRFTISRDNSKNTLYLQMNSLRAEDTAVYYCARSGSTTSGGVYRWYFNLWGQGTLVTVSSGGGGSGGGGSGGGGSDIQMTQSPSSLSASVGDRVTITCQASENIYNLLAWYQQKPGKVPKLLIYDASTLQSGVPSRFSGSGSGTDFTLTISSLQPEDVATYYCQFTYYGGTYESAFGGGTKVEIK
notes: as for B1
Work on B13 yielded a Kd of 12.1 nM, a koff of 0.00491 s⁻¹ and a kon of 407000 M⁻¹ s⁻¹.

B14: MAdCAM1 scFv 32.7 (scFv)
scFv: B13 scFv with L5V, D75H
notes: as for B1
Work on B14 yielded a Kd of 23.8 nM, a koff of 0.00991 s⁻¹ and a kon of 416000 M⁻¹ s⁻¹.

B15: MAdCAM1 scFv 32.4 (scFv)
scFv: B13 scFv with V185A, T195N, Q197E, S198T, L215F, V225I
notes: as for B1
For B15, the Kd was 18.7 nM, the koff was 0.0108 s⁻¹ and the kon was 577000 M⁻¹ s⁻¹.

B16: MAdCAM1 scFv 32.5 (scFv)
scFv: B1 scFv with A185V, N195T, E197Q, T198S, F215L, I225V
notes: as for B1
Work on B16 yielded a Kd of 5.4 nM, a koff of 0.00146 s⁻¹ and a kon of 272000 M⁻¹ s⁻¹.

B17: MAdCAM1 scFv 32.8 (scFv)
scFv: B1 scFv with Q1E, V11L, R16G, A50S, D75H, T78K, F82Y
notes: as for B1
With B17 the Kd was 15.5 nM, the koff was 0.0083 s⁻¹ and the kon was 534000 M⁻¹ s⁻¹.

B18: MAdCAM1 scFv 8.2 (scFv)
scFv: EVQLVESGGGLVQPGGSLRLSCAASGFTLSSSYYMYWVRQAPGKGLEWVSVIYAGDGNTYYASWAKGRFTISRDNSKNTLYLQMNSLRAEDTAVYYCARGYVGYGYAIDLWGQGTLVTVSSGGGGSGGGGSGGGGSAIQLTQSPSSLSASVGDRVTITCQASQSIYSSLAWYQQKPGKAPKLLIYYASILPSGVPSRFSGSGSGTDFTLTISSLQPEDFATYYCQATTYDSTYPNAFGGGTKVEIK
notes: as for B1
Binder B18 has a Kd of 78 nM, a koff of 0.00295 s⁻¹ and a kon of 37800 M⁻¹ s⁻¹.

B19: MAdCAM1 scFv 8.7 (scFv)
scFv: B18 scFv with S7T, V12I, A137D, L140M, S146T, D206E, E217D
notes: as for B1
Binder B19 has a Kd of 258 nM, a koff of 0.00428 s⁻¹ and a kon of 16600 M⁻¹ s⁻¹.

B20: MAdCAM1 scFv 8.1 (scFv)
scFv: B18 scFv with A137D, L140M, S146T, D206E, E217D
notes: as for B1
With B20 the Kd was 89.9 nM, the koff was 0.00186 s⁻¹ and the kon was 20700 M⁻¹ s⁻¹.

B21: MAdCAM1 scFv 8.5 (scFv)
scFv: B18 scFv with E1Q, L11V, G16R, S50A, A137D, L140M, S146T, D206E, E217D
notes: as for B1
B21 showed a Kd of 114 nM, a koff of 0.00158 s⁻¹ and a kon of 13800 M⁻¹ s⁻¹.

B22: MAdCAM1 scFv 8.4 (scFv)
scFv: B18 scFv with V5L, V51A
notes: as for B1
In the case of B22, the Kd is reported as 30.9 nM, the koff is reported as 0.000393 s⁻¹ and the kon is reported as 12700 M⁻¹ s⁻¹.

B23: MAdCAM1 scFv 8.6 (scFv)
scFv: B18 scFv with E1Q, L11V, G16R, S50A
notes: as for B1
Work on B23 yielded a Kd of 84.8 nM, a koff of 0.00218 s⁻¹ and a kon of 25700 M⁻¹ s⁻¹.

B24: MAdCAM1 scFv 8.8 (scFv)
scFv: B18 scFv with S7T, V12I
notes: as for B1
B24 gave a Kd of 311 nM, a koff of 0.00696 s⁻¹ and a kon of 22400 M⁻¹ s⁻¹.
